# Reference: patent US12098186
# pKd: −log10 of the molar value.
# Molecular target: SARS-CoV-2 receptor-binding domain (RBD) of the spike protein (SARS-CoV-2) (UniProt P0DTC2)
substance,measurement,value
Bamlanivimab/ LY-CoV555 (antibody),pKd,8.46
